Reference: patent US6375945B1, “Adjuvant compositions for vaccines” (SmithKline Beecham Biologicals s.a., priority 1997, dated 2002)

B1: IL12: murine IL12 purified from the supernatant of transfected P1HTR cells; heterodimeric cytokine (protein, UniProt P43431 23-215; P43432 23-335, looked up)
Interleukin-12 subunit alpha: RVIPVSGPARCLSQSRNLLKTTDDMVKTAREKLKHYSCTAEDIDHEDITRDQTSTLKTCLPLELHKNESCLATRETSSTTRGSCLPPQKTSLMMTLCLGSIYEDLKMYQTEFQAINAALQNHNHQQIILDKGMLVAIDELMQSLNHNGETLRQKPPVGEADPYRVKMKLCILLHAFSTRVVTINRVMGYLSSA
Interleukin-12 subunit beta: MWELEKDVYVVEVDWTPDAPGETVNLTCDTPEEDDITWTSDQRHGVIGSGKTLTITVKEFLDAGQYTCHKGGETLSHSHLLLHKKENGIWSTEILKNFKNKTFLKCEAPNYSGRFTCSWLVQRNMDLKFNIKSSSSSPDSRAVTCGMASLSAEKVTLDQRDYEKYSVSCQEDVTCPTAEETLPIELALEARQQNKYENYSTSFFIRDIIKPDPPKNLQMKPLKNSQVEVSWEYPDSWSTPHSYFSLKFFVRIQRKKEKMKETEEGCNQKGAFLVEKTSTEVQCKGGNVCVQAQDRYYNSSCSKWACVPCRVRS
B2: IFN-γ: cytokine (protein, UniProt P01579 24-161, looked up)
Interferon gamma: QDPYVKEAENLKKYFNAGHSDVADNGTLFLGILKNWKEESDRKIMQSQIVSFYFKLFKNFKDDQSIQKSVETIKEDMNVKFFNSNKKKRDDFEKLTNYSVTDLNVQRKAIHELIQVMAELSPAAKTGKRKRSQMLFRG
B3: IL-7: cytokine (protein, UniProt P13232 26-177, looked up)
Interleukin-7: DCDIEGKDGKQYESVLMVSIDQLLDSMKEIGSNCLNNEFNFFKRHICDANKEGMFLFRAARKLRQFLKMNSTGDFDLHLLKVSEGTTILLNCTGQVKGRKPAALGEAQPTKSLEENKSLKEQKKLNDLCFLKRLLQEIKTCWNKILMGTKEH

Columns and labels:
[1] = Enhancement of the effect of the QS21/MPL adjuvant by other cytokines
P1983 cells = assay: IL12 dose curve: CTL activity in mice receiving peptide P198 + DQS21/3D-MPL + various doses of IL12; format: in vivo, DBA/2 mice; conditions: with P198 peptide and DQS21/3D-MPL
Protocol: DBA/2 mice were injected s.c. in the two footpads with 50 μg of P198 peptide ([…]), corresponding to the antigen expressed by the P198 TUM—clone (Sibille et al., J. Exp. Med., 1990: 172, 35-45), mixed with the DQS21/3D-MPL adjuvant (adjuvant) 100 μl final. […] This murine IL12 was purified from the supernatant of transfected P1HTR cells as described in Gajewski et al. (J. Immunol. 1995, 154: 5637-5648). […] On day 16, the mice were bled and stimulation of blood lymphocytes was performed by mixing 3×10^5 Ficoll purified lymphocytes with […] stimulating cells (100 Gy) and 2×10^6 irradiated normal syngeneic spleen cells (30 Gy) as feeder cells. The stimulating cells were P1983 cells, an azaguanine-resistant variant derived from the P198 TUM-clone. The cells were incubated in 48-well plates in a final volume of 0,8 ml MLTC medium described in Warnier et al. (Int. J. Cancer, 1996, 67, 303-310). Seven days later, CTL activity was measured in a standard chromium-release assay using 1,000 5^1Cr-labelled targets. […] Specific lytic units were calculated by subtracting the values obtained with the negative targets (usually less than 0,3 LU) from those obtained with the positive target. Mice were scored as ± when the LU detected were comprised between 0,1 and 1; + when LU were comprised between 1 and 10; and ++ above 10 LU. […]

[2] = mouse, in vivo

| Molecule | enhancement of the effect of the QS21/MPL adjuvant [1] | effect of IL12 on CTL activity (P1983 cells; IL12 dose/mouse/day 10 ng (100U)) | effect of IL12 on CTL activity (P1983 cells; IL12 only 30 ng (so in the source)) | systemic toxicity [2] |
| --- | --- | --- | --- | --- |
| IL-6: cytokine | unable to enhance | – | – | – |
| GM-CSF: cytokine | unable to enhance | – | – | – |
| B1 | – | nearly fully maintained | disappeared | largely reduced but not totally absent |
| B2 | unable to enhance | – | – | – |
| B3 | unable to enhance | – | – | – |
